“Also recorded” adds a separate entry of the source. Read-outs that look alike come from different tables or passages of the source. No end group written: not given here.
T1: FcγRIIA (Homo sapiens, UniProt P12318)
T1 sequence (P12318 34-317): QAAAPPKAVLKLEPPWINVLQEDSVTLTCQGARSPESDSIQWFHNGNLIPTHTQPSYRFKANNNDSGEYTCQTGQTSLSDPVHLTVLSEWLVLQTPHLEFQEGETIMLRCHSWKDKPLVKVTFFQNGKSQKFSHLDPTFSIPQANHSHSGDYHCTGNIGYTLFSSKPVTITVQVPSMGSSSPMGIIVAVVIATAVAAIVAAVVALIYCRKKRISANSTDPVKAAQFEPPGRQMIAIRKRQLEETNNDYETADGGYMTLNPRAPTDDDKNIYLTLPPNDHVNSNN

T2: human Fc gamma receptor IIA (FcγRIIA) (human, UniProt P12318 34-317)
T2 construct: whole, on cells; also called FcgRIIA; CD32a
T2 sequence (looked up): T1 sequence (P12318 34-317)

B1: HRU5 (scFv)
scFv: EVQLVESGPELKKPGETVKISCKASGYTFTNYGMNWVKQAPGKGLKWMGWLNTYTGESIYPDDFKGRFAFSLETSASTAYLQINNLKSEDTATYFCARGDYGYDDPLDYWGQGTSVTVSSGGGGWAWVWLTETAVGGGGSDIVMTQAPPSVPVTPGESVSISCRSSKSLLHTNGNTYLHWFLQKPGQSPRLLIYRMSVLASGVPDRFSGSGSGTDFTLKISRVEAEDVGVYYCMQHLEYPLTFGAGTKLEIKRAHHHHHH
modifications: AF488 (fluorescent) label in the flow cytometry binding assays; site not stated
notes: also called HRU5 scFv; Peptide in the linker
B2: HRU5: Humanized variable heavy and variable light chains derived from the IV.3 MoAb linked with a GGGGWAWVWLTETAVGGGGS linker (protein)
scFv: B1 scFv
B3: HRU7: HRU5 linked to bivalirudin (an anticoagulant peptide) by a Ser2Gly12 linker (protein)
scFv: EVQLVESGPELKKPGETVKISCKASGYTFTNYGMNWVKQAPGKGLKWMGWLNTYTGESIYPDDFKGRFAFSLETSASTAYLQINNLKSEDTATYFCARGDYGYDDPLDYWGQGTSVTVSSGGGGWAWVWLTETAVGGGGSDIVMTQAPPSVPVTPGESVSISCRSSKSLLHTNGNTYLHWFLQKPGQSPRLLIYRMSVLASGVPDRFSGSGSGTDFTLKISRVEAEDVGVYYCMQHLEYPLTFGAGTKLEIKRAGGGGSGGGGSGGGGFPRPGGGGNGDFEEIPEEYLHHHHHH
B4: Humanized scFv (parental scFv) derived from the IV.3 monoclonal antibody (scFv)
scFv: EVQLVESGPELKKPGETVKISCKASGYTFTNYGMNWVKQAPGKGLKWMGWLNTYTGESIYPDDFKGRFAFSLETSASTAYLQINNLKSEDTATYFCARGDYGYDDPLDYWGQGTSVTVSSGGGGSGGGGSGGGGSDIVMTQAPPSVPVTPGESVSISCRSSKSLLHTNGNTYLHWFLQKPGQSPRLLIYRMSVLASGVPDRFSGSGSGTDFTLKISRVEAEDVGVYYCMQHLEYPLTFGAGTKLEIKRAHHHHHH
modifications: AF488 (fluorescent) label in the flow cytometry binding assays; site not stated
notes: Arranged VH-linker-VL; also called HRU4
B5: parental scFv: Humanized scFv derived from anti-FcγRIIA IV.3 monoclonal antibody, VH and VL joined by flexible GGGGS linker (protein)
scFv: B4 scFv

Experiments:
FcγRIIA = biological target: T1, FcγRIIA; test: Binding of the linker peptide alone; settings: source not stated
human platelets [1] = assay type: cell-based; settings: for Inhibition of platelet aggregation of HIT-antibody: concentration giving inhibition; for inhibition of HIT serum induced aggregation: 40 nM, human platelets, HIT serum and heparin; for EC50: HRU5 relative to the parental scFv, read-out: activity (effective concentration)
Description: Platelet aggregation assays were performed by mixing samples at 1200 rpm, 37° C. for up to 25 min in an aggregometer (Chrono-log Aggro/Link™). The reaction mixture (500 μl) consisted of 300 μl of healthy donor PRP, HIT patient serum or purified Total HIT IgG (up to 14 μM, adjusted according to different donor platelets), heparin (0.5 IU/ml) and various concentrations of HRU5-HRU7. The degree of aggregation was determined by the increase in light transmittance. Platelet aggregation levels over 20% were considered positive.
With antibody/IC-induced platelet aggregation, time delay (time lapse) is a more sensitive measure of platelet aggregability compared with the extent of platelet aggregation as different antibodies invariably cause the same maximum extent of platelet aggregation after variable time delays or time lapses (as illustrated in FIG. 2B). Various concentrations of parental scFv, HRU5 or HRU6 were used. Plots were fitted to non-linear regression analysis (sigmoidal dose-response curves) (FIG. 2C). […] Here, the degree of inhibition of platelet aggregation was determined at various concentrations and analysed as shown in FIG. 2D.
Inhibition of platelet aggregation of HIT-antibody by HRU5 ˜3.5 mg/ml.

[2] = biological target: T2, human Fc gamma receptor IIA (FcγRIIA); test: platelet-based fluorescent assay (flow cytometry), one-site specific binding fit
Description: (§1) Platelet-rich plasma (PRP) was obtained from whole blood after centrifugation at 200×g for 10 min. Washing/Suspension buffer (PBS, 0.5% BSA, 25 mM EDTA, pH 6.8) was used for platelet preparation throughout the experiment. 4 μl of PRP was incubated with various concentrations of fluorescently labelled HRU molecules for 30 min. Cells were washed once with 500 μl of buffer (PBS, 0.5% BSA, 25 mM EDTA, pH 6.8), suspended in 200 μl of PBS and analysed by flow cytometry (Cantoll, BD Biosciences).

thrombin = biological target: T3, thrombin (Homo sapiens, UniProt P00734); test: Thrombin time assay in plasma; assay type: biochemical; settings: undiluted plasma, increasing concentrations, in words
T3 construct: purchased Diagnostica STAGO S.A.A
Description: FIG. 3B is a graph of a Thrombin Time Delay assay for HRU6 and HRU7. Increasing concentrations of HRU molecules were incubated with undiluted plasma prepared from ACD anticoagulated blood. Clotting time of control plasma (untreated plasma) is shown corresponding to 0 concentration (closed circle). […] Clotting time is shown in sec.
The STA-Thrombin kit (Diagnostica STAGO S.A.A.) was used for the determination of the thrombin time by a haemostasis analyser. Plasma was prepared from ACD anticoagulated normal blood by centrifugation for 10 min at 2500×g. 500 μl of undiluted plasma, in the absence and presence of different inhibitor concentrations (e.g., HRU6 and HRU7), was analysed. Thrombin time of the plasma was determined by the analyser.
HRU6 and HRU7 also contain anti-thrombin activity provided by the lepirudin and bivalirudin moieties respectively. The Hemoclot thrombin inhibitor assay was used to determine the anti-clotting activity. The normal clotting time range is 15-24 sec.

[3] = system: FcγRIIA/hPF4 double transgenic mice; test: Animal model of HIT (KKO plus heparin), lung thrombi by fluorescence; assay type: in vivo, mouse; settings: 3.49×10^−11 moles per gram (~1 microgram/g)
Description: The mice used in these experiments were described in Reilly et al., “Heparin-induced thrombocytopenia/thrombosis in a transgenic mouse model requires human platelet factor 4 and platelet activation through FcγRIIA” Blood. 2001; 98(8):2442-2447. Animals were injected intravenously (iv) with HIT-like MoAb KKO. Heparin was injected intraperitoneally at 1 U/g following IgG injection. In some experiments, HRU molecules were also injected via the iv route. For in vivo platelet labelling anti-CD42c-Dylight649 (Emfret) was injected iv at 1 μg/g. Platelet counts were measured before treatment and at 1 h, 3 h and 5 h following treatment. Lungs were harvested 4 h after treatment, fixed in formalin and scanned for fluorescence in an IVIS Lumina Spectrum CT Spectrometer (PerkinElmer).
Mouse platelets were labeled in vivo with anti CD42c-Dylight649 antibody. The animals were treated with the HIT-like monoclonal antibody KKO plus heparin in the absence (vehicle) or presence of 3.49×10^−11 moles per gram (˜1 microgram/g) of parental scFv or HRU5. Fixed lungs from these mice were scanned with an IVIS Lumina Spectrum CT. There was clear accumulation of florescence in lungs treated with KKO plus vehicle, indicative of the presence of platelet rich thrombi. […] This finding is consistent with the findings of the in vitro experiments and microfluidics studies. […]

platelets [4] = test: Serotonin release assay (platelet activation); assay type: cell-based, human; settings: 0.1 IU/ml heparin; induced by KKO (FIG. 4) / HIT serum
Description: FIG. 4 is a graph of the serotonin release assay. Serotonin release was induced by a HIT-like monoclonal antibody (KKO) and was inhibited by parental scFv, HRU5, HRU6 or HRU7. Heparin was used at therapeutic low concentrations (L, 0.1 U) and at inhibitory high concentration (H,100 U). Dotted lines denote 0% and 20% CPMA. Values over 20% are considered positive. CPMA, counts per minute.
SRA is the gold standard to confirm the presence of platelet-activating HIT antibodies. Platelets from a healthy donor were labelled with Hydroxytryptamine Binoxalate, 5-[2-^14C]-(Serotonin) (^14C-5HT) (1.5 μl/ml) and mixed with heparin (0.1 (low dose) or 100 IU/ml (high dose)) in the presence of HIT serum. The protein of interest was then added to the reaction and incubated at room temperature for 1 h. After centrifugation the supernatant was collected and the ^14C-serotonin released was measured in a scintillation counter. The percentage of ^14C-serotonin released was calculated by determining the proportion in the supernatant relative to the remaining ^14C-serotonin in platelets. A test result is defined as positive if more than 20% serotonin release is detected with a therapeutic heparin concentration of (0.1 IU/ml) but not with a high dose of heparin (100 IU/ml).

human platelets [5] = test: Platelet binding, flow cytometry (platelet-based fluorescent assay); settings: for Kd: binding to human platelets, non-linear regression, one-site specific binding (FIG. 1D); for binding to human platelets: labelled scFvs, flow cytometry, in words
Description: FIG. 1D provides graphs of platelet-based fluorescent assay measurements with KD and R^2 values for the parental scFv, HRU5 and HRU6. Non-linear regression analysis (one-site specific binding) was used to determine KD and R^2 values. GMF, geometric mean fluorescence.
as §1

platelets [6] = test: Thrombin-induced platelet aggregation; assay type: cell-based, human; settings: 0.3 U of thrombin
Description: For thrombin induced platelet aggregation samples were mixed as described above in the presence of 0.3 U of thrombin.

[7] = biological target: T2, human Fc gamma receptor IIA (FcγRIIA); test: cell-based or functional assay
[8] = system: FcγRIIa+/hPF4+ mouse lungs; test: Platelet accumulation in FcγRIIa+/hPF4+ mouse lungs (FIG. 8); assay type: in vivo
Description: FIG. 8 is a graph of radiant efficiency showing the level of platelet accumulation in FcγRIIa+/hPF4+ mouse lungs.

Row | Molecule | Inhibition of platelet aggregation of HIT-antibody (human platelets [1]; serum from a HIT patient) | Kd [2] [nM] | thrombin clotting time (thrombin) | inhibition of thrombus accumulation in lungs [3] | 14C-serotonin release (platelets [4]) | inhibition of HIT serum induced aggregation (human platelets [1]) | EC50 (human platelets [1]) [µM] | Kd (human platelets [5]) [nM] | binding to human platelets (human platelets [5]) | also measured
1 | WAWVWLTETAV [FcγRIIA binding peptide, reference compound] | 100 µM |  |  |  |  |  |  |  |  | Kd (FcγRIIA): 500 nM; IC50 (human platelets [1]): 55 µM; capacity to inhibit HIT serum-induced aggregation (human platelets [1]; peptide alone, FIG. 10): low; IC50 of peptide versus EC50 of the parental scFv (human platelets [1]; printed as '3,000 times lower'): 3,000 times
2 | B1 |  | 282 |  |  |  |  |  |  |  | 
3 | B2 | ~3.5 mg/mL |  | did not influence clotting time; also recorded: does not prolong clotting time | inhibition of thrombus accumulation; also recorded: Clot inhibition was much greater in mice treated with HRU5 than with parental scFv | inhibited | completely inhibited | 0.0088 | 298 | strong binding to platelets | activity relative to the parental scFv (EC50 and IC50) (human platelets [1]; HIT serum-induced platelet aggregation, in words): increase in activity; Inhibition of platelet aggregation of HIT-antibody (human platelets [1]; converted from mg/ml): ~0.09386 µM
4 | B3 |  |  | significant increases in thrombin clotting time; also recorded: prolong clotting time in a dose-dependent manner |  | inhibited |  |  |  | stronger binding to human platelets than expected | inhibition of thrombin-induced platelet aggregation (platelets [6]): inhibit thrombin-induced platelet aggregation in a dose dependent manner
5 | B4 |  | 298 |  |  |  |  |  |  |  | EC50 (platelet aggregation induced by HIT serum) [7]: 18 nM
6 | B5 |  |  |  | inhibition of thrombus accumulation | inhibited | completely inhibited | 55 | 282 |  | inhibition of thrombosis (platelet accumulation in lungs, radiant efficiency) [8]: strong inhibition of thrombosis
